{
  "source": "patent US12295987B2",
  "about": "“Method of using a GIP/GLP1 co-agonist for diabetes” (Eli Lilly and Company, priority 2018, dated 2025)",
  "note": "Numbered stars: 1 amine (or outer) side, 2 acyl side, 3 side chain; on linkers, the order of the positions; unused ones are H or OH. Square brackets hold non-standard residues; d marks the D form. Side chains are listed from the residue outwards. Ends that are not written are not given here. * marks the point of attachment. C20 diacid = O=C(O)CCCCCCCCCCCCCCCCCCC(=O)*; C18 diacid = O=C(O)CCCCCCCCCCCCCCCCC(=O)*; αMePhe(2-F) = C[C@](N)(Cc1ccccc1F)C(=O)O; γGlu = O=C(O)[C@H](CCC(=O)[*:2])N[*:1]; αMeL = CC(C)C[C@](C)(N)C(=O)O; AEEA = NCCOCCOCC(=O)O; Aib = CC(C)(N)C(=O)O",
  "data": [
    {"molecular_target": "T1, human gastric inhibitory peptide receptor (hGIPR) (Homo sapiens, UniProt P48546)", "T1 construct": "expressed in transfected cells; host or cells: HEK293", "T1 sequence (P48546 22-466)": "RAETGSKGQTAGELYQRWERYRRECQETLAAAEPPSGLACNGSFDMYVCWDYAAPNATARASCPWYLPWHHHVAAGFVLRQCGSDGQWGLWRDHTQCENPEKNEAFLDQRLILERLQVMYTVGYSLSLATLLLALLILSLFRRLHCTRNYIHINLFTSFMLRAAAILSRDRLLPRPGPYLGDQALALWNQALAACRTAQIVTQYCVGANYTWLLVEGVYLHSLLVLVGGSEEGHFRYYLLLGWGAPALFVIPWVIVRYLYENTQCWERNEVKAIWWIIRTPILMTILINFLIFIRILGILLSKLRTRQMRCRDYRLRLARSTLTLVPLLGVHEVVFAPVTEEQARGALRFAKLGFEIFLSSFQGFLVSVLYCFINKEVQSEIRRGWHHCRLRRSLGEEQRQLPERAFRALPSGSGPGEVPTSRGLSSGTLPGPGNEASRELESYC", "assay": "cAMP pharmacological functional assay in presence of 0.1% casein, hGIPR", "assay_type": "cell-based", "conditions": "ratio of hGIPR to hGLP1R cAMP EC50 ratios", "values": [
      {"substance": "Y-Aib-EGT-αMeF(2F)-TSDHSI-αMeL-LDEK((2-[2-(2-Amino-ethoxy)-ethoxy]-acetyl)2-(γGlu)-CO—(CH2)16—CO2H)AQ-Aib-HFI-(D-Glu)-YLIEGGPSSG-NH2 (Y[Aib]EGT[αMePhe(2-F)]TSDHSI[αMeL]LDEK([AEEA-AEEA-γGlu-C18 diacid])AQ[Aib]HFI[dE]YLIEGGPSSG-NH2; N-terminus assumed; SMILES CC[C@H](C)[C@H](NC(=O)[C@H](CC(C)C)NC(=O)[C@H](Cc1ccc(O)cc1)NC(=O)[C@@H](CCC(=O)O)NC(=O)[C@@H](NC(=O)[C@H](Cc1ccccc1)NC(=O)[C@H](Cc1c[nH]cn1)NC(=O)C(C)(C)NC(=O)[C@H](CCC(N)=O)NC(=O)[C@H](C)NC(=O)[C@H](CCCCNC(=O)COCCOCCNC(=O)COCCOCCNC(=O)CC[C@H](NC(=O)CCCCCCCCCCCCCCCCC(=O)O)C(=O)O)NC(=O)[C@H](CCC(=O)O)NC(=O)[C@H](CC(=O)O)NC(=O)[C@H](CC(C)C)NC(=O)[C@](C)(CC(C)C)NC(=O)[C@@H](NC(=O)[C@H](CO)NC(=O)[C@H](Cc1c[nH]cn1)NC(=O)[C@H](CC(=O)O)NC(=O)[C@H](CO)NC(=O)[C@@H](NC(=O)[C@](C)(Cc1ccccc1F)NC(=O)[C@@H](NC(=O)CNC(=O)[C@H](CCC(=O)O)NC(=O)C(C)(C)NC(=O)[C@@H](N)Cc1ccc(O)cc1)[C@@H](C)O)[C@@H](C)O)[C@@H](C)CC)[C@@H](C)CC)C(=O)N[C@@H](CCC(=O)O)C(=O)NCC(=O)NCC(=O)N1CCC[C@H]1C(=O)N[C@@H](CO)C(=O)N[C@@H](CO)C(=O)NCC(N)=O) [Peptide 179]", "[hGIPR/hGLP1R] EC50 Ratio": 3.40},
      {"substance": "Y-Aib-EGT-αMeF(2F)-TSDHSI-αMeL-LDEK((2-[2-(2-Amino-ethoxy)-ethoxy]-acetyl)2-(γGlu)-CO—(CH2)16—CO2H)AQ-Aib-TFI-(D-Glu)-YLIEGGPSSGAPPPS-NH2 (YXEGTXTSDHSIXLDEKAQXTFIXYLIEGGPSSGAPPPS; Aib, αMeF(2F), αMeL, D-Glu; C18 diacid lipidated K; amide; (2)..(2) Xaa at position 2 is Aib; (6)..(6) Xaa at position 6 is alpha-methyl-Phe(2F); (13)..(13) Xaa at position 13 is alpha-methyl-Leu; MOD_RES (17)..(17) Lys at position 17 is chemically modified by conjugation of the epsilon-amino group of the Lys side chain with (2-[2-(2-amino-ethoxy)-ethoxy]-acetyl)2-(gamma-Glu)-CO-(CH2)16- CO2H; (20)..(20) Xaa at position 20 is Aib; (24)..(24) Xaa at positi) [Peptide 169]", "[hGIPR/hGLP1R] EC50 Ratio": 8.97},
      {"substance": "Y-Aib-EGT-αMeF(2F)-TSDHSI-αMeL-LDEK((2-[2-(2-Amino-ethoxy)-ethoxy]-acetyl)2-(γGlu)-CO—(CH2)18—CO2H)AQ-Aib-EFIEYLIEGGPSSGAPPPS-NH2 (Y[Aib]EGT[αMePhe(2-F)]TSDHSI[αMeL]LDEK([AEEA-AEEA-γGlu-C20 diacid])AQ[Aib]EFIEYLIEGGPSSGAPPPS-NH2; N-terminus assumed; SMILES CC[C@H](C)[C@H](NC(=O)[C@H](CC(C)C)NC(=O)[C@H](Cc1ccc(O)cc1)NC(=O)[C@H](CCC(=O)O)NC(=O)[C@@H](NC(=O)[C@H](Cc1ccccc1)NC(=O)[C@H](CCC(=O)O)NC(=O)C(C)(C)NC(=O)[C@H](CCC(N)=O)NC(=O)[C@H](C)NC(=O)[C@H](CCCCNC(=O)COCCOCCNC(=O)COCCOCCNC(=O)CC[C@H](NC(=O)CCCCCCCCCCCCCCCCCCC(=O)O)C(=O)O)NC(=O)[C@H](CCC(=O)O)NC(=O)[C@H](CC(=O)O)NC(=O)[C@H](CC(C)C)NC(=O)[C@](C)(CC(C)C)NC(=O)[C@@H](NC(=O)[C@H](CO)NC(=O)[C@H](Cc1c[nH]cn1)NC(=O)[C@H](CC(=O)O)NC(=O)[C@H](CO)NC(=O)[C@@H](NC(=O)[C@](C)(Cc1ccccc1F)NC(=O)[C@@H](NC(=O)CNC(=O)[C@H](CCC(=O)O)NC(=O)C(C)(C)NC(=O)[C@@H](N)Cc1ccc(O)cc1)[C@@H](C)O)[C@@H](C)O)[C@@H](C)CC)[C@@H](C)CC)C(=O)N[C@@H](CCC(=O)O)C(=O)NCC(=O)NCC(=O)N1CCC[C@H]1C(=O)N[C@@H](CO)C(=O)N[C@@H](CO)C(=O)NCC(=O)N[C@@H](C)C(=O)N1CCC[C@H]1C(=O)N1CCC[C@H]1C(=O)N1CCC[C@H]1C(=O)N[C@@H](CO)C(N)=O) [Peptide 154]", "[hGIPR/hGLP1R] EC50 Ratio": 4.80},
      {"substance": "Y-Aib-EGT-αMeF(2F)-TSDHSI-αMeL-LDEK((2-[2-(2-Amino-ethoxy)-ethoxy]-acetyl)2-(γGlu)-CO—(CH2)18—CO2H)AQ-Aib-TFI-(D-Glu)-YLIEGGPSSG-NH2 (Y[Aib]EGT[αMePhe(2-F)]TSDHSI[αMeL]LDEK([AEEA-AEEA-γGlu-C20 diacid])AQ[Aib]TFI[dE]YLIEGGPSSG-NH2; N-terminus assumed; SMILES CC[C@H](C)[C@H](NC(=O)[C@H](CC(C)C)NC(=O)[C@H](Cc1ccc(O)cc1)NC(=O)[C@@H](CCC(=O)O)NC(=O)[C@@H](NC(=O)[C@H](Cc1ccccc1)NC(=O)[C@@H](NC(=O)C(C)(C)NC(=O)[C@H](CCC(N)=O)NC(=O)[C@H](C)NC(=O)[C@H](CCCCNC(=O)COCCOCCNC(=O)COCCOCCNC(=O)CC[C@H](NC(=O)CCCCCCCCCCCCCCCCCCC(=O)O)C(=O)O)NC(=O)[C@H](CCC(=O)O)NC(=O)[C@H](CC(=O)O)NC(=O)[C@H](CC(C)C)NC(=O)[C@](C)(CC(C)C)NC(=O)[C@@H](NC(=O)[C@H](CO)NC(=O)[C@H](Cc1c[nH]cn1)NC(=O)[C@H](CC(=O)O)NC(=O)[C@H](CO)NC(=O)[C@@H](NC(=O)[C@](C)(Cc1ccccc1F)NC(=O)[C@@H](NC(=O)CNC(=O)[C@H](CCC(=O)O)NC(=O)C(C)(C)NC(=O)[C@@H](N)Cc1ccc(O)cc1)[C@@H](C)O)[C@@H](C)O)[C@@H](C)CC)[C@@H](C)O)[C@@H](C)CC)C(=O)N[C@@H](CCC(=O)O)C(=O)NCC(=O)NCC(=O)N1CCC[C@H]1C(=O)N[C@@H](CO)C(=O)N[C@@H](CO)C(=O)NCC(N)=O) [Peptide 167]", "[hGIPR/hGLP1R] EC50 Ratio": 5.98},
      {"substance": "Y-Aib-EGT-αMeF(2F)-TSDHSI-αMeL-LDEK((2-[2-(2-Amino-ethoxy)-ethoxy]-acetyl)2-(γGlu)-CO—(CH2)18—CO2H)AQ-Aib-TFI-(D-Glu)-YLIEGGPSSGAPPPS-NH2 (YXEGTXTSDHSIXLDEKAQXTFIXYLIEGGPSSGAPPPS; Aib, αMeF(2F), αMeL, D-Glu; lipidated K; C-terminal amide; (2)..(2) Xaa at position 2 is Aib; (6)..(6) Xaa at position 6 is alpha-methyl-Phe(2F); (13)..(13) Xaa at position 13 is alpha-methyl-Leu; MOD_RES (17)..(17) Lys at position 17 is chemically modified by conjugation of the epsilon-amino group of the Lys side chain with (2-[2-(2-amino-ethoxy)-ethoxy]-acetyl)2-(gamma-Glu)-CO-(CH2)18- CO2H; (20)..(20) Xaa at position 20 is Aib; (24)..(24) Xaa at positi) [Peptide 168]", "[hGIPR/hGLP1R] EC50 Ratio": 9.69},
      {"substance": "Y-Aib-EGT-αMeF(2F)-TSDHSI-αMeL-LDEK((2-[2-(2-Amino-ethoxy)-ethoxy]-acetyl)2-(εK)-CO—(CH2)16—CO2H)AQ-Aib-TFI-(D-Glu)-YLIEGGPSSGAPPPS-NH2 (YXEGTXTSDHSIXLDEKAQXTFIXYLIEGGPSSGAPPPS; Aib, αMeF(2F), αMeL, D-Glu; εK-lipidated K; amide; (2)..(2) Xaa at position 2 is Aib; (6)..(6) Xaa at position 6 is alpha-methyl-Phe(2F); (13)..(13) Xaa at position 13 is alpha-methyl-Leu; MOD_RES (17)..(17) Lys at position 17 is chemically modified by conjugation of the epsilon-amino group of the Lys side chain with (2-[2-(2-amino-ethoxy)-ethoxy]-acetyl)2-(epsilon-Lys)-CO-(CH2)16- CO2H; (20)..(20) Xaa at position 20 is Aib; (24)..(24) Xaa at posi) [Peptide 176]", "[hGIPR/hGLP1R] EC50 Ratio": 4.71},
      {"substance": "Y-Aib-EGT-αMeF(2F)-TSDHSI-αMeL-LDEK((2-[2-(2-Amino-ethoxy)-ethoxy]-acetyl)2-CO—(CH2)18—CO2H)AQ-Aib-TFI-(D-Glu)-YLIEGGPSSGAPPPS-NH2 (YXEGTXTSDHSIXLDEKAQXTFIXYLIEGGPSSGAPPPS; Aib, αMeF(2F), αMeL, D-Glu; lipidated K; amide; (2)..(2) Xaa at position 2 is Aib; (6)..(6) Xaa at position 6 is alpha-methyl-Phe(2F); (13)..(13) Xaa at position 13 is alpha-methyl-Leu; MOD_RES (17)..(17) Lys at position 17 is chemically modified by conjugation of the epsilon-amino group of the Lys side chain with (2-[2-(2-amino-ethoxy)-ethoxy]-acetyl)2-CO-(CH2)18-CO2H; (20)..(20) Xaa at position 20 is Aib; (24)..(24) Xaa at position 24 is D-Gl) [Peptide 174]", "[hGIPR/hGLP1R] EC50 Ratio": 4.99}
    ]}
  ]
}
